Assay results taken from patent US20140011978A1 (EPFL TTO, published 2014).

B1: TNC III5 fused to GST (other, human, UniProt P24821 991-1074, looked up)
chain: LQVSETAETSLTLLWKTPLAKFDRYRLNYSLPTGQWVGVQLPRNTTSYVLRGLEPGQEYNVLLTAEKGRHKSKPARVKASTEQA
notes: domain: TNC III5; also called domain TNC III5; not shown: GST
B2: TNC III3 (other, human, UniProt P24821 805-894, looked up)
GST fusion: APSQIEVKDVTDTTALITWFKPLAEIDGIELTYGIKDVPGDRTTIDLTEDENQYSIGNLKPDTEYEVSLISRRGDMSSNPAKETFTTGLD
notes: domain fragment; also called TNC III3 fused to GST
B3: TNC III4 (other, human, UniProt P24821 895-990, looked up)
GST fusion: APRNLRRVSQTDNSITLEWRNGKAAIDSYRIKYAPISGGDHAEVDVPKSQQATTKTTLTGLRPGTEYGIGVSAVKEDKESNPATINAATELDTPKD
notes: domain fragment; also called TNC III4 fused to GST
B4: BMP-2 (ligand, UniProt P12643 283-396, looked up)
chain: QAKHKQRKRLKSSCKRHPLYVDFSDVGWNDWIVAPPGYHAFYCHGECPFPLADHLNSTNHAIVQTLVNSVNSKIPKACCVPTELSAISMLYLDENEKVVLKNYQDMVVEGCGCR
B5: VEGF-A165 (ligand, UniProt P15692-4 27-191, looked up)
chain: APMAEGGGQNHHEVVKFMDVYQRSYCHPIETLVDIFQEYPDEIEYIFKPSCVPLMRCGGCCNDEGLECVPTEESNITMQIMRIKPHQGQHIGEMSFLQHNKCECRPKKDRARQENPCGPCSERRKHLFVQDPQTCKCSCKNTDSRCKARQLELNERTCRCDKPRR
B6: FGF-7 (ligand, UniProt P21781 32-194, looked up)
chain: CNDMTPEQMATNVNCSSPERHTRSYDYMEGGDIRVRRLFCRTQWYLRIDKRGKVKGTQEMKNNYNIMEIRTVAVGIVAIKGVESEFYLAMNKEGKLYAKKECNEDCNFKELILENHYNTYASAKWTHNGGEMFVALNQKGIPVRGKKTKKEQKTAHFLPMAIT
B7: VEGF-C (ligand, UniProt P49767 112-227, looked up)
chain: AHYNTEILKSIDNEWRKTQCMPREVCIDVGKEFGVATNTFFKPPCVSVYRCGGCCNSEGLQCMNTSTSYLSKTLFEITVPLSQGPKPVTISFANHTSCRCMSKLDVYRQVHSIIRR
B8: BDNF (ligand, UniProt P23560 129-247, looked up)
chain: HSDPARRGELSVCDSISEWVTAADKKTAVDMSGGTVTVLEKVPVSKGQLKQYFYETKCNPMGYTKEGCRGIDKRHWNSQCRTTQSYVRALTMDSKKRIGWRFIRIDTSCVCTLTIKRGR
notes: also called brain-derived neurotrophic factor
B9: FGF-10 (ligand, UniProt O15520 38-208, looked up)
chain: QALGQDMVSPEATNSSSSSFSSPSSAGRHVRSYNHLQGDVRWRKLFSFTKYFLKIEKNGKVSGTKKENCPYSILEITSVEIGVVAVKAINSNYYLAMNKKGKLYGSKEFNNDCKLKERIEENGYNTYASFNWQHNGRQMYVALNGKGAPRRGQKTRRKNTSAHFLPMVVHS
B10: PlGF-2 (ligand, UniProt P49763-3 19-170, looked up)
chain: LPAVPPQQWALSAGNGSSEVEVVPFQEVWGRSYCRALERLVDVVSEYPSEVEHMFSPSCVSLLRCTGCCGDENLHCVPVETANVTMQLLKIRSGDRPSYVELTFSQHVRCECRPLREKMKPERRRPKGRGKRRREKQRPTDCHLCGDAVPRR
B11: TGF-β2 (ligand, UniProt P61812 303-414, looked up)
chain: ALDAAYCFRNVQDNCCLRPLYIDFKRDLGWKWIHEPKGYNANFCAGACPYLWSSDTQHSRVLSLYNTINPEASASPCCVSQDLEPLTILYYIGKTPKIEQLSNMIVKSCKCS
B12: FGF-17 (ligand, UniProt O60258 23-216, looked up)
chain: TQGENHPSPNFNQYVRDQGAMTDQLSRRQIREYQLYSRTSGKHVQVTGRRISATAEDGNKFAKLIVETDTFGSRVRIKGAESEKYICMNKRGKLIGKPSGKSKDCVFTEIVLENNYTAFQNARHEGWFMAFTRQGRPRQASRSRQNQREAHFIKRLYQGQLPFPNHAEKQKQFEFVGSAPTRRTKRTRRPQPLT
B13: FGF-4 (ligand, UniProt P08620 31-206, looked up)
chain: APTAPNGTLEAELERRWESLVALSLARLPVAAQPKEAAVQSGAGDYLLGIKRLRRLYCNVGIGFHLQALPDGRIGGAHADTRDSLLELSPVERGVVSIFGVASRFFVAMSSKGKLYGSPFFTDECTFKEILLPNNYNAYESYKYPGMFIALSKNGKTKKGNRVSPTMKVTHFLPRL
B14: FGF-6 (ligand, UniProt P10767 38-208, looked up)
chain: SPAGTRANNTLLDSRGWGTLLSRSRAGLAGEIAGVNWESGYLVGIKRQRRLYCNVGIGFHLQVLPDGRISGTHEENPYSLLEISTVERGVVSLFGVRSALFVAMNSKGRLYATPSFQEECKFRETLLPNNYNAYESDLYQGTYIALSKYGRVKRGSKVSPIMTVTHFLPRI
B15: FGF-18 (ligand, UniProt O76093 28-207, looked up)
chain: EENVDFRIHVENQTRARDDVSRKQLRLYQLYSRTSGKHIQVLGRRISARGEDGDKYAQLLVETDTFGSQVRIKGKETEFYLCMNRKGKLVGKPDGTSKECVFIEKVLENNYTALMSAKYSGWYVGFTKKGRPRKGPKTRENQQDVHFMKRYPKGQPELQKPFKYTTVTKRSRRIRPTHPA
B16: EGF (ligand)
chain: NSDSECPLSHDGYCLHDGVCMYIEALDKYACNCVVGYIGERCQYRDLKWWELR
B17: TGF-β3 (ligand)
chain: ALDTNYCFRNLEENCCVRPLYIDFRQDLGWKWVHEPKGYYANFCSGPCPYLRSADTTHSTVLGLYNTLNPEASASPCCVPQDLEPLTILYYVGRTPKVEQLSNMVVKSCKCS
modifications: Natural form is a disulfide-linked homodimer; one protomer is given.
B18: FGF-20 (ligand)
chain: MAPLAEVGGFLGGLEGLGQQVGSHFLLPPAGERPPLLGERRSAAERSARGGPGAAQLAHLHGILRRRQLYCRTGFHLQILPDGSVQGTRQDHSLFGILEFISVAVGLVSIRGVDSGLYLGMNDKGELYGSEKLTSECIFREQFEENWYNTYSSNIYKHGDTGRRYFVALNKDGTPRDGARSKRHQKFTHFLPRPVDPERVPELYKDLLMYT

Each binder was assayed against T1, PDGF-BB (UniProt P01127 82-190) (assay: ELISA: GST-fused TNC domains, GST and BSA coated, 2 nM PDGF-BB in solution, anti-PDGF-BB antibody and HRP secondary, A450).
T1 construct: The name implies a homodimer of B chains
T1 sequence (P01127 82-190 limits assumed): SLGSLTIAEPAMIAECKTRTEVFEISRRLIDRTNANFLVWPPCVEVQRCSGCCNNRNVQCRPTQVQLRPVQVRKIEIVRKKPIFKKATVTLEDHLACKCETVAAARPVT
Experimental: An ELISA was performed to test the affinity of different domains present in TNC1-5 to PDGF-BB as an example cytokine that has shown to bind TNC III1-5. Domain TNC III5 was defined to be responsible for cytokine binding. Method: ELISA plates were coated with individual TNC domains fused to GST, as well as GST and BSA. Wells were blocked with BSA and then incubated with 2 nM PDGF-BB. Binding of PDGF-BB was detected using an anti-PDGF-BB antibody and then a secondary horseradish peroxidase conjugated antibody.
B1: binds. B2: no binding (tested: 2 nM PDGF-BB). B3: binds.

Each binder was assayed against T2, TNC III1-5 (human, UniProt P24821 622-1074) (assay: ELISA: cytokine coated (50 nM), 100 nM TNC III1-5 in solution, HRP-anti-His, A450; black bars without, white bars with 4 µM heparin).
T2 construct: The secreted protein in the assays lacks the leader; also called TG-TNC III1-5; engineered TNC III1-5
T2 sequence: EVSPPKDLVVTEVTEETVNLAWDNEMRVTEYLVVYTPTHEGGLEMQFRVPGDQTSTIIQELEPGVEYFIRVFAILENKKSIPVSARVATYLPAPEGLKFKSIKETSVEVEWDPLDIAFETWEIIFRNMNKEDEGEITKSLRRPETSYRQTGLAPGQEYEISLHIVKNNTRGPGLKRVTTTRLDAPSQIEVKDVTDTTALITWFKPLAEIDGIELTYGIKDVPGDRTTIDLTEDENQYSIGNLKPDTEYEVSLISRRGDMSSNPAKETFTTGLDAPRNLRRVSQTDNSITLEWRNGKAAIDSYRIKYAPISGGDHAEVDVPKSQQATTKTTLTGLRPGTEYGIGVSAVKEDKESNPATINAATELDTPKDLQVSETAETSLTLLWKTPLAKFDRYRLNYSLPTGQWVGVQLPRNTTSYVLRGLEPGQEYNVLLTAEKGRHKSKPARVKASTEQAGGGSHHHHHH
Experimental: (§1) ELISA plates were coated with cytokines or BSA and further incubated with TNC III1-5 to analyze binding of TNC III1-5 to a wide variety of cytokines. […] A large amount of heparin (4 μM) impaired binding of TNC III1-5 to these cytokines. Results are depicted in FIG. 3. Method: 50 nM of cytokine was coated for (1 hr, 37° C.). After blocking with 2% BSA (1 hr, RT). 100 nM TNC III1-5 was applied in PBST (0.05% tween, 0.1% bovine serum albumin (BSA)) (1 hr, RT). TNC III1-5 was detected with horseradish peroxidase (HRP)-anti-HIS in PBST (1 hr, RT) and developed with 3,3′,5,5′-tetramethylbenzidine (TMB), a soluble colorimetric HRP […]. Addition of sulfuric acid stop solution changes the color to yellow, enabling accurate measurement of the intensity at 450 nm using a spectrophotometer or plate reader. […] Heparin (4 μM) was added to TNC III1-5 to test the effect of blocking the heparin binding site of TNC III1-5, which has been defined as domain TNC III5 (Weber, Zimmermann, et al., 1995).
B4: binds. B5: binds. B6: binds. B7: binds. B8: binds. B9: binds. B10: binds. B11: binds. B12: binds. B13: binds. B14: binds. B15: binds.

The binders below were run against T2, TNC III1-5 (assay: ELISA: cytokine coated (50 nM), 100 nM TNC III1-5 in solution, HRP-anti-His, A450).
Experimental: as §1
B16: no binding (tested: 100 nM). B17: no binding (tested: 100 nM). B18: no binding (tested: 100 nM).
